Measurements: paper PMC11702627

Molecular target: T1, WT 4Ig-B7-H3-meGFP (and WT 4Ig-B7-H3-mCherry as the second copy) (human), Q5ZPR3
T1 chain: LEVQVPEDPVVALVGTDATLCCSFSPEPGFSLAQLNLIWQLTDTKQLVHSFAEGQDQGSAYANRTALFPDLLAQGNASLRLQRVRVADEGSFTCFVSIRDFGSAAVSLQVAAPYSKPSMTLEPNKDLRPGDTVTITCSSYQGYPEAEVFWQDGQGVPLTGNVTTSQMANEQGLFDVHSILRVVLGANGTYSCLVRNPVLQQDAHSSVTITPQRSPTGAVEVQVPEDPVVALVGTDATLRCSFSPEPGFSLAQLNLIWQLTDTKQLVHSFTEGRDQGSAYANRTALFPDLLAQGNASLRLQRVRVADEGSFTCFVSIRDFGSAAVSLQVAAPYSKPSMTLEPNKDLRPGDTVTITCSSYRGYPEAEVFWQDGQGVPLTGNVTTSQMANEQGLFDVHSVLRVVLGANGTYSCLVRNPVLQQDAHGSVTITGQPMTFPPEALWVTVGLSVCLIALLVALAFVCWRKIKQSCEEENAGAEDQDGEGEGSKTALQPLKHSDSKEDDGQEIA
Experiment: FRET or BRET
Settings: remark: other sources report otherwise

B1: WT 4Ig-B7-H3-meGFP (and WT 4Ig-B7-H3-mCherry as the second copy), Q5ZPR3 29-534 (natural protein)
chain: T1 chain
abundance of dimeric complexes (1.3 ns lifetime population): 65% | dimeric abundance (with MBCD 0.1 ug, 10 minutes): 26% | dimeric abundance (without MBCD): 48% | dimeric lifetime abundance (with Vector-mCherry): 56%
